Patent publication US20220144890

What was measured:
[1] = biological target: H2 peptide derived from GBR
[2] = biological target: H2 peptide derived from MAP1LC3C
[3] = biological target: H2 peptide derived from MAP1LC3B
[4] = biological target: T1, H2 α-helical peptide derived from GBRL2 (GABARAPL2 alpha-helix 2 domain)
T1 chain: VAQFMWIIRKR

B1: recombinant ATG4B (protein)
chain: MDAATLTYDTLRFAEFEDFPETSEPVWILGRKYSIFTEKDEILSDVASRLWFTYRKNFPAIGGTGPTSDTGWGCMLRCGQMIFAQALVCRHLGRDWRWTQRKRQPDSYFSVLNAFIDRKDSYYSIHQIAQMGVGEGKSIGQWYGPNTVAQVLKKLAVFDTWSSLAVHIAMDNTVVMEEIRRLCRTSVPCAGATAFPADSDRHCNGFPAGAEVTNRPSPWRPLVLLIPLRLGLTDINEAYVETLKHCFMMPQSLGVIGGKPNSAHYFIGYVGEELIYLDPHTTQPAVEPTDGCFIPDESFHCQHPPCRMSIAELDPSIAVGFFCKTEDDFNDWCQQVKKLSLLGGALPMFELVELQPSHLACPDVLNLSLDSSDVERLERFFDSEDEDFEILSL
[1]
  ATG4B cleavage of chimeric Myc-GBRL2-S-tag substrate (blot): inhibited ATG4B cleavage activity in dose dependent manner
[2]
  ATG4B cleavage of chimeric Myc-GBRL2-S-tag substrate (blot): inhibited ATG4B cleavage activity in dose dependent manner
[3]
  ATG4B cleavage of chimeric Myc-GBRL2-S-tag substrate (blot): inhibited ATG4B cleavage activity in dose dependent manner, while H2 peptides derived from MAP1LC3B and GBRL2 had the strongest inhibition on ATG4B
[4]
  ATG4B cleavage of chimeric Myc-GBRL2-S-tag substrate (blot): inhibited ATG4B cleavage activity in dose dependent manner, while H2 peptides derived from MAP1LC3B and GBRL2 had the strongest inhibition on ATG4B
